# Measurements: patent publication US12630600B2 (MEDIMMUNE LIMITED, priority 2022, dated 2026)
# Starred links: 1 amine or outer side, 2 acyl side, 3 side chain; linkers in the order of their positions; H or OH if unused. Non-standard residues stand in square brackets, D forms with d. Groups on a side chain read outwards from the residue. No end group written: not given here. *: point of attachment. C20 diacid = O=C(O)CCCCCCCCCCCCCCCCCCC(=O)*; C18 diacid = O=C(O)CCCCCCCCCCCCCCCCC(=O)*; γGlu = O=C(O)[C@H](CCC(=O)[*:2])N[*:1]; αMeF = C[C@](N)(Cc1ccccc1)C(=O)O; AEEA = NCCOCCOCC(=O)O; Aib = CC(C)(N)C(=O)O
# B1: Peptide 446 (peptide)
# peptide: H[Aib]QGTFTSDVSK[αMeF]LDRK([AEEA-AEEA-γGlu-γGlu-C18 diacid])RAQDFVRWLV[Aib]E-NH2
# modifications: N-terminus assumed
# SMILES: CC(C)C[C@H](NC(=O)[C@H](Cc1c[nH]c2ccccc12)NC(=O)[C@H](CCCNC(=N)N)NC(=O)[C@@H](NC(=O)[C@H](Cc1ccccc1)NC(=O)[C@H](CC(=O)O)NC(=O)[C@H](CCC(N)=O)NC(=O)[C@H](C)NC(=O)[C@H](CCCNC(=N)N)NC(=O)[C@H](CCCCNC(=O)COCCOCCNC(=O)COCCOCCNC(=O)CC[C@H](NC(=O)CC[C@H](NC(=O)CCCCCCCCCCCCCCCCC(=O)O)C(=O)O)C(=O)O)NC(=O)[C@H](CCCNC(=N)N)NC(=O)[C@H](CC(=O)O)NC(=O)[C@H](CC(C)C)NC(=O)[C@](C)(Cc1ccccc1)NC(=O)[C@H](CCCCN)NC(=O)[C@H](CO)NC(=O)[C@@H](NC(=O)[C@H](CC(=O)O)NC(=O)[C@H](CO)NC(=O)[C@@H](NC(=O)[C@H](Cc1ccccc1)NC(=O)[C@@H](NC(=O)CNC(=O)[C@H](CCC(N)=O)NC(=O)C(C)(C)NC(=O)[C@@H](N)Cc1c[nH]cn1)[C@@H](C)O)[C@@H](C)O)C(C)C)C(C)C)C(=O)N[C@H](C(=O)NC(C)(C)C(=O)N[C@@H](CCC(=O)O)C(N)=O)C(C)C
# B2: Peptide 448 (peptide)
# peptide: H[Aib]QGTFTSDVSK[αMeF]LDKK([AEEA-AEEA-γGlu-γGlu-C18 diacid])RARDFVRWLL[Aib]E-OH
# modifications: N-terminus assumed
# SMILES: CC(C)C[C@H](NC(=O)[C@H](Cc1c[nH]c2ccccc12)NC(=O)[C@H](CCCNC(=N)N)NC(=O)[C@@H](NC(=O)[C@H](Cc1ccccc1)NC(=O)[C@H](CC(=O)O)NC(=O)[C@H](CCCNC(=N)N)NC(=O)[C@H](C)NC(=O)[C@H](CCCNC(=N)N)NC(=O)[C@H](CCCCNC(=O)COCCOCCNC(=O)COCCOCCNC(=O)CC[C@H](NC(=O)CC[C@H](NC(=O)CCCCCCCCCCCCCCCCC(=O)O)C(=O)O)C(=O)O)NC(=O)[C@H](CCCCN)NC(=O)[C@H](CC(=O)O)NC(=O)[C@H](CC(C)C)NC(=O)[C@](C)(Cc1ccccc1)NC(=O)[C@H](CCCCN)NC(=O)[C@H](CO)NC(=O)[C@@H](NC(=O)[C@H](CC(=O)O)NC(=O)[C@H](CO)NC(=O)[C@@H](NC(=O)[C@H](Cc1ccccc1)NC(=O)[C@@H](NC(=O)CNC(=O)[C@H](CCC(N)=O)NC(=O)C(C)(C)NC(=O)[C@@H](N)Cc1c[nH]cn1)[C@@H](C)O)[C@@H](C)O)C(C)C)C(C)C)C(=O)N[C@@H](CC(C)C)C(=O)NC(C)(C)C(=O)N[C@@H](CCC(=O)O)C(=O)O
# B3: Peptide 450 (peptide)
# peptide: H[Aib]QGTFTSDVSK[αMeF]LDKK([AEEA-AEEA-γGlu-γGlu-C18 diacid])RAQDFVRWLLE[Aib]G-OH
# modifications: N-terminus assumed
# SMILES: CC(C)C[C@H](NC(=O)[C@H](Cc1c[nH]c2ccccc12)NC(=O)[C@H](CCCNC(=N)N)NC(=O)[C@@H](NC(=O)[C@H](Cc1ccccc1)NC(=O)[C@H](CC(=O)O)NC(=O)[C@H](CCC(N)=O)NC(=O)[C@H](C)NC(=O)[C@H](CCCNC(=N)N)NC(=O)[C@H](CCCCNC(=O)COCCOCCNC(=O)COCCOCCNC(=O)CC[C@H](NC(=O)CC[C@H](NC(=O)CCCCCCCCCCCCCCCCC(=O)O)C(=O)O)C(=O)O)NC(=O)[C@H](CCCCN)NC(=O)[C@H](CC(=O)O)NC(=O)[C@H](CC(C)C)NC(=O)[C@](C)(Cc1ccccc1)NC(=O)[C@H](CCCCN)NC(=O)[C@H](CO)NC(=O)[C@@H](NC(=O)[C@H](CC(=O)O)NC(=O)[C@H](CO)NC(=O)[C@@H](NC(=O)[C@H](Cc1ccccc1)NC(=O)[C@@H](NC(=O)CNC(=O)[C@H](CCC(N)=O)NC(=O)C(C)(C)NC(=O)[C@@H](N)Cc1c[nH]cn1)[C@@H](C)O)[C@@H](C)O)C(C)C)C(C)C)C(=O)N[C@@H](CC(C)C)C(=O)N[C@@H](CCC(=O)O)C(=O)NC(C)(C)C(=O)NCC(=O)O
# B4: Peptide 443 (peptide)
# peptide: H[Aib]QGTFTSDVSK[αMeF]LDKK([AEEA-AEEA-γGlu-C18 diacid])RARDFVRWLL[Aib]E-NH2
# modifications: N-terminus assumed
# SMILES: CC(C)C[C@H](NC(=O)[C@H](Cc1c[nH]c2ccccc12)NC(=O)[C@H](CCCNC(=N)N)NC(=O)[C@@H](NC(=O)[C@H](Cc1ccccc1)NC(=O)[C@H](CC(=O)O)NC(=O)[C@H](CCCNC(=N)N)NC(=O)[C@H](C)NC(=O)[C@H](CCCNC(=N)N)NC(=O)[C@H](CCCCNC(=O)COCCOCCNC(=O)COCCOCCNC(=O)CC[C@H](NC(=O)CCCCCCCCCCCCCCCCC(=O)O)C(=O)O)NC(=O)[C@H](CCCCN)NC(=O)[C@H](CC(=O)O)NC(=O)[C@H](CC(C)C)NC(=O)[C@](C)(Cc1ccccc1)NC(=O)[C@H](CCCCN)NC(=O)[C@H](CO)NC(=O)[C@@H](NC(=O)[C@H](CC(=O)O)NC(=O)[C@H](CO)NC(=O)[C@@H](NC(=O)[C@H](Cc1ccccc1)NC(=O)[C@@H](NC(=O)CNC(=O)[C@H](CCC(N)=O)NC(=O)C(C)(C)NC(=O)[C@@H](N)Cc1c[nH]cn1)[C@@H](C)O)[C@@H](C)O)C(C)C)C(C)C)C(=O)N[C@@H](CC(C)C)C(=O)NC(C)(C)C(=O)N[C@@H](CCC(=O)O)C(N)=O
# B5: Peptide 451 (peptide)
# peptide: H[Aib]QGTFTSDVSK[αMeF]LDKK([AEEA-AEEA-γGlu-C20 diacid])RARDFVLWLL[Aib]E-NH2
# modifications: N-terminus assumed
# SMILES: CC(C)C[C@H](NC(=O)[C@H](Cc1c[nH]c2ccccc12)NC(=O)[C@H](CC(C)C)NC(=O)[C@@H](NC(=O)[C@H](Cc1ccccc1)NC(=O)[C@H](CC(=O)O)NC(=O)[C@H](CCCNC(=N)N)NC(=O)[C@H](C)NC(=O)[C@H](CCCNC(=N)N)NC(=O)[C@H](CCCCNC(=O)COCCOCCNC(=O)COCCOCCNC(=O)CC[C@H](NC(=O)CCCCCCCCCCCCCCCCCCC(=O)O)C(=O)O)NC(=O)[C@H](CCCCN)NC(=O)[C@H](CC(=O)O)NC(=O)[C@H](CC(C)C)NC(=O)[C@](C)(Cc1ccccc1)NC(=O)[C@H](CCCCN)NC(=O)[C@H](CO)NC(=O)[C@@H](NC(=O)[C@H](CC(=O)O)NC(=O)[C@H](CO)NC(=O)[C@@H](NC(=O)[C@H](Cc1ccccc1)NC(=O)[C@@H](NC(=O)CNC(=O)[C@H](CCC(N)=O)NC(=O)C(C)(C)NC(=O)[C@@H](N)Cc1c[nH]cn1)[C@@H](C)O)[C@@H](C)O)C(C)C)C(C)C)C(=O)N[C@@H](CC(C)C)C(=O)NC(C)(C)C(=O)N[C@@H](CCC(=O)O)C(N)=O
# B6: Peptide 449 (peptide)
# peptide: H[Aib]QGTFTSDVSK[αMeF]LDTK([AEEA-AEEA-γGlu-γGlu-C20 diacid])RARDFVQWLLE[Aib]G-OH
# modifications: N-terminus assumed
# SMILES: CC(C)C[C@H](NC(=O)[C@H](Cc1c[nH]c2ccccc12)NC(=O)[C@H](CCC(N)=O)NC(=O)[C@@H](NC(=O)[C@H](Cc1ccccc1)NC(=O)[C@H](CC(=O)O)NC(=O)[C@H](CCCNC(=N)N)NC(=O)[C@H](C)NC(=O)[C@H](CCCNC(=N)N)NC(=O)[C@H](CCCCNC(=O)COCCOCCNC(=O)COCCOCCNC(=O)CC[C@H](NC(=O)CC[C@H](NC(=O)CCCCCCCCCCCCCCCCCCC(=O)O)C(=O)O)C(=O)O)NC(=O)[C@@H](NC(=O)[C@H](CC(=O)O)NC(=O)[C@H](CC(C)C)NC(=O)[C@](C)(Cc1ccccc1)NC(=O)[C@H](CCCCN)NC(=O)[C@H](CO)NC(=O)[C@@H](NC(=O)[C@H](CC(=O)O)NC(=O)[C@H](CO)NC(=O)[C@@H](NC(=O)[C@H](Cc1ccccc1)NC(=O)[C@@H](NC(=O)CNC(=O)[C@H](CCC(N)=O)NC(=O)C(C)(C)NC(=O)[C@@H](N)Cc1c[nH]cn1)[C@@H](C)O)[C@@H](C)O)C(C)C)[C@@H](C)O)C(C)C)C(=O)N[C@@H](CC(C)C)C(=O)N[C@@H](CCC(=O)O)C(=O)NC(C)(C)C(=O)NCC(=O)O
# B7: Peptide 444 (peptide)
# peptide: H[Aib]QGTFTSDVSK[αMeF]LETK([AEEA-AEEA-γGlu-C18 diacid])RARDFVQWLLE[Aib]G-OH
# modifications: not fully specified
# B8: Peptide 447 (peptide)
# peptide: H[Aib]QGTFTSDVSK[αMeF]LDRK([AEEA-AEEA-γGlu-γGlu-C20 diacid])RAQDFVRWLV[Aib]E-NH2
# modifications: N-terminus assumed
# SMILES: CC(C)C[C@H](NC(=O)[C@H](Cc1c[nH]c2ccccc12)NC(=O)[C@H](CCCNC(=N)N)NC(=O)[C@@H](NC(=O)[C@H](Cc1ccccc1)NC(=O)[C@H](CC(=O)O)NC(=O)[C@H](CCC(N)=O)NC(=O)[C@H](C)NC(=O)[C@H](CCCNC(=N)N)NC(=O)[C@H](CCCCNC(=O)COCCOCCNC(=O)COCCOCCNC(=O)CC[C@H](NC(=O)CC[C@H](NC(=O)CCCCCCCCCCCCCCCCCCC(=O)O)C(=O)O)C(=O)O)NC(=O)[C@H](CCCNC(=N)N)NC(=O)[C@H](CC(=O)O)NC(=O)[C@H](CC(C)C)NC(=O)[C@](C)(Cc1ccccc1)NC(=O)[C@H](CCCCN)NC(=O)[C@H](CO)NC(=O)[C@@H](NC(=O)[C@H](CC(=O)O)NC(=O)[C@H](CO)NC(=O)[C@@H](NC(=O)[C@H](Cc1ccccc1)NC(=O)[C@@H](NC(=O)CNC(=O)[C@H](CCC(N)=O)NC(=O)C(C)(C)NC(=O)[C@@H](N)Cc1c[nH]cn1)[C@@H](C)O)[C@@H](C)O)C(C)C)C(C)C)C(=O)N[C@H](C(=O)NC(C)(C)C(=O)N[C@@H](CCC(=O)O)C(N)=O)C(C)C
# B9: Peptide 445 (peptide)
# peptide: H[Aib]QGTFTSDVSK[αMeF]LETK([AEEA-AEEA-γGlu-C18 diacid])RARDFVQWLLE[Aib]G-OH
# Biological target: human glucagon receptor (human, UniProt P47871)
# Assay: cell-based or functional assay
row,Binder,cAMP production EC50 [nM]
1,B1,0.366
2,B2,0.029
3,B3,0.0578
4,B4,0.0224
5,B5,0.503
6,B6,0.242
7,B7,1.76
8,B8,0.667
9,B9,0.684

# Biological target: human GLP-1 receptor (human, UniProt P43220)
# Assay: cell-based or functional assay
row,Binder,cAMP production EC50 [nM]
1,B1,0.0329
2,B2,0.0531
3,B3,0.0573
4,B4,0.0206
5,B5,0.895
6,B6,0.207
7,B7,0.247
8,B8,0.17
9,B9,0.033
